The values that follow are results of earlier work, collected in article PMC2862573.

The Kd is the free concentration of one partner at which half of the binding sites on the other are occupied at equilibrium, for simple one-to-one binding.

The target of the data set is CCR2 loop-2 peptide (Homo sapiens).

For the substance MCP-1 (from UniProt P13500), the dissociation constant Kd is 22 µM.
